The source of these data is patent US12129308 (Merck KGaA, dated 2024).

Like-named read-outs stand apart in the source and are kept apart here.

Usually EC50 stands for the concentration that produces a half-maximal response. For orientation: IC50 means the concentration that inhibits the measured activity by half. Read a high IC50 as lower potency.

The target of test [1] is T1, activated human MMP13 (human, UniProt P45452 104-471). Kind of test: cell-based or functional assay.
Test [2] has as its target T1, activated human MMP13. In words: cell-based or functional assay. The source holds these as a separate data set.
In test [3] the target is T2, activated rat MMP13 (rat, UniProt P23097 99-466).
T2 construct: also called MMP13 R. norvegicus NP_598214.1
Kind of test: ELISA; activated MMP13 captured via mAb511, Nanobody detected with anti-FLAG-HRP. Background: An ELISA detects its analyte on a solid surface through an enzyme-linked reagent.
Experimental: (§1) After a washing step in PBS+0.05% Tween20, 20 nM activated human, rat or dog MMP13 were added for one hour at RT. After a second washing step, 10-fold dilutions of periplasmic extracts or dilution series of purified Nanobodies in PBS, 0.1% casein, 0.05% Tween 20 were added for one hour at RT. Bound Nanobodies were detected with mouse anti-FLAG-HRP (Sigma (A8592)).

Test [4] has as its target T1, activated human MMP13. The test is described as above.
Experimental: as §1
Test [5] deals with T3, activated dog MMP13 (dog, UniProt P45452 104-471 (human entry)).
T3 construct: also called MMP13 C. lupus XP_536598.3
Described as above.
Experimental: as §1

In test [6] the target is T1, activated human MMP13. Kind of test: competition ELISA: dilution series of Nanobody against 0.6 nM biotinylated 40E09 (C0101040E09-biotin) on APMA-activated human full-length MMP13 captured via mouse anti-human MMP13 mAb MAB511.
The target in test [7] is T4, activated MMP13 (species not stated) (Homo sapiens (Human), UniProt P45452 104-471, Biotinylated in the TIMP-2 competition ELISA (sites not given). Activated form: pro-peptide removed.). In words: cell-based or functional assay.
A further test has as its target cynomolgus MMP13 (cynomolgus, UniProt A0A2K5U988 104-471). Kind of test: cell-based or functional assay.
In test [8] the target is T2, activated rat MMP13. Kind of test: cell-based or functional assay.
Test [9] concerns the target T3, activated dog MMP13. In words: cell-based or functional assay.
The target of the next test is bovine MMP13 (bovine, UniProt O77656 104-471). In words: cell-based or functional assay.
Test [10] addresses T2, activated rat MMP13. Kind of test: cell-based or functional assay. This is another data set of the same source.
Test [11] deals with T1, activated human MMP13. In words: cell-based or functional assay. This is another data set of the same source.
Test [12] concerns the target T4, activated MMP13 (species not stated). In words: TIMP-2 competition ELISA; Nanobody pre-incubated with 1.26 nM activated MMP13-biotin, binding to captured TIMP-2.
Test [13] addresses T1, activated human MMP13. In words: cell-based or functional assay. This is another data set of the same source.
The target of a further test is T5, Aggrecan.
T5 construct: also called CAP
Kind of test: competition ELISA (CAP) on Aggrecan; competitor not stated.

B1: C0101PMP040E09 (VHH)
VHH: EVQLVESGGGSVQAGGSLRLSCAASGSTFSRYSMNWYRQAPGKQREFVAGISVGRITNYAVSVRGRFTISRDNAEGTGYLQMNSLKPEDTAVYYCNAGGLQGYWGLGTQVTVSS
notes: Profile 1 Nanobody; also called C0101040E09
Take B1: the “IC50 (read off the curve); fluorogenic Collagen assay, partial inhibition [left graph]” value with activated human MMP13 [1] is about 20 nM. In the test with activated human MMP13 [2], the “IC50, human collagenolytic assay” value was determined as 10.2 nM. Also, the EC50 was determined as 0.44 nM with activated rat MMP13 [3], 0.66 nM in the test with activated human MMP13 [4] and 0.38 nM in the test with activated dog MMP13 [5]. In addition, the “IC50 (read off the curve)” value with activated human MMP13 [6] is about 4 nM.

B2: C0101PMP517A01 (VHH)
VHH: DVQLVESGGGLVQPGGSLRLSCAASGRTFSSYAMGWFRQAPGKEREFVAAISWSGGSTYYADSVKGRFTISRDNSKNTVYLQMNSLRPEDTAVYYCTAALAVYGPNRYRYGPVGEYNYWGQGTLVTVSS
notes: Profile 2 Nanobody; also called C0101517A01; C010100087 (parental)
For the molecule B2, the “IC50, fluorogenic peptide assay” value in test [7] was 2.5 nM. The “IC50, cyno fluorogenic peptide assay” value with cynomolgus MMP13 worked out at 3 nM. The “IC50, rat fluorogenic peptide assay” value in the test with activated rat MMP13 [8] came out at 2.1 nM. In addition, in the test with activated human MMP13 [2], the “IC50, human collagenolytic assay” value came out at 2.3 nM; the “IC50, human fluorogenic collagen assay” value stood at 10.9 nM; the “IC50, human fluorogenic peptide assay” value was 4.6 nM. The “IC50, dog fluorogenic peptide assay” value with activated dog MMP13 [9] was 3.4 nM. In the test with bovine MMP13, the “IC50, bovine fluorogenic peptide assay” value is 6.4 nM. Further, the “IC50, (adapted) rat fluorogenic peptide assay” value with activated rat MMP13 [10] amounted to 2.64 nM. Besides, the “IC50, human fluorogenic collagen assay” value with activated human MMP13 [11] was 10.8 nM. In test [12], this molecule had an IC50 of 2.6 nM.

B3: C010100724 (bispecific antibody)
chain: DVQLVESGGGLVQPGGSLRLSCAASGSIFSINAMGWYRQAPGKQRELVAAISSGGSTYYADSVKGRFTISRDNSKNTVYLQMNSLRPEDTAVYYCNAAVDASRGLPYELYYYWGQGTLVTVSSGGGGSGGGGSGGGGSGGGGSGGGGSGGGGSGGGGSEVQLVESGGGLVQPGGSLRLSCAASGRTFSSYTMGWFRQAPGKEREFVAAISWSGGRTYYADSVKGRFTISRDNSKNTVYLQMNSLRPEDTAVYYCAAYRRRRASSNRGLWDYWGQGTLVTVSSA
notes: MMP13-Aggrecan bispecific Nanobody construct; also called 529C12SO-604F02SO-A
With B3, in the test with activated human MMP13 [13], the “potency, human fluorogenic peptide assay” value stood at 0.697 nM. In addition, the IC50 with Aggrecan was found to be 32 nM.

B4: C010100682 (bispecific antibody)
chain: EVQLVESGGGLVQPGGSLRLSCAASGSIFSINAMGWYRQAPGKQRELVAAISSGGSTYYADSVKGRFTISRDNSKNTVYLQMNSLRPEDTAVYYCNAAVDASRGLPYELYYYWGQGTLVTVSSGGGGSGGGGSGGGGSGGGGSGGGGSGGGGSGGGGSEVQLVESGGGLVQPGGSLRLSCAASGSTFIINVVRWYRRAPGKQRELVATISSGGNANYVDSVRGRFTISRDNSKNTVYLQMNSLRPEDTAVYYCNVPTTHYGGVYYGPYWGQGTLVTVSSGGGGSGGGGSGGGGSGGGGSGGGGSGGGGSGGGGSEVQLVESGGGLVQPGGSLRLSCAASGSTFIINVVRWYRRAPGKQRELVATISSGGNANYVDSVRGRFTISRDNSKNTVYLQMNSLRPEDTAVYYCNVPTTHYGGVYYGPYWGQGTLVTVSS
notes: MMP13-Aggrecan bispecific Nanobody construct; also called 529C12SO-114F08SO-114F08SO
As to B4, in the test with activated human MMP13 [13], the “potency, human fluorogenic peptide assay” value was 0.551 nM. In the test with Aggrecan, this molecule had a half-inhibitory concentration (IC50) of 0.45 nM.
